Consider 30 sequences from the supplement of paper PMC9170038.

The test system of this series is MS2 coat protein. Nature of the series: apparent KD of MS2 coat protein; designed switch direction (-1 OFF switch, 1 ON switch): -1; higher = weaker reporter binding. Put shortly:
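On Illumina chips, designed RNA switches with common flanks were made by stalled E. coli RNA polymerase. Titrations with SNAP-549-labelled MS2 coat protein, doubling from 0.7 or 1.5 nM to 3 µM, were done with no input, with 200 uM small-molecule ligand, or with an oligonucleotide input. Apparent KD is the median per design over clusters, from curve fits of normalised cluster fluorescence.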

The mark [1] stands for this setting: Eterna round: R95, input ligand: FMN 200 uM.
Setting [2] is: Eterna round: R95, input ligand: microRNA oligo, concentration not stated.
[3] abbreviates: Eterna round: R95, input ligand: none.
Setting [4] is: input ligand: microRNA oligo, concentration not stated.

For “GGAAAGCAAGGAUAUACAAGGAAACGAUGGAAAGUAGAGAGACAUGAGGAUCACCCAUGUAGAAGGUGCGAGAG [JR_Exclu2_Sub037] (puzzle: Exclusion 2)”, the “apparent KD of MS2 coat protein” value reads like this: under setting [1], 36.9 nM; under setting [2], 24.9 nM; under setting [3], 25.3 nM.
On to “UAGUAGCAAGGAUAUACAGAGGAGAGGAUUGCAAGAGGUGGACAUGAGGAUCACCCAUGUAGAAGGUGCAGAGA [JR_Exclu2_Sub021] (puzzle: Exclusion 2)”, for which the “apparent KD of MS2 coat protein” value by setting is: under setting [1], 310 nM; under setting [2], 275 nM; under setting [3], 362 nM.
For the sequence “ACAAGCUUAAUCAGUAUGAACAUGAGGAUCACCCAUGUAAAAGGGAAUACUAUUGGGUUUUUUAAAGCUCGUCUUAU [JR_STOV1_Sub017] (Eterna round: R97, puzzle: Sensor, turn-off variant 1)”, the “apparent KD of MS2 coat protein” value was found to be 23 nM (input ligand: FMN 200 uM) and 21.8 nM (input ligand: none).
Regarding “AAGAAACAUGAGGAUCACCCAUGUGAGGAUAUGAUGCGAAUUAUGUAUGUAGUAAGCAUCAGAAGGCACAAAGG [Mat - Mod Mix D39] (puzzle: Exclusion 1)”, the “apparent KD of MS2 coat protein” value under setting [2] came out at 142 nM.
Regarding “GUAGAGUCAGGAUAUACAAGAUCGAUAGAUCGGCGGUCCAUACAUGAGGAUCACCCAUGUAGAAGGGACUCUAC [Mat - Exclusion 2 - Eli Mod - D5] (Eterna round: R97, puzzle: Exclusion 2)”, the “apparent KD of MS2 coat protein” value (input ligand: FMN 200 uM) is 514 nM and the “apparent KD of MS2 coat protein” value (input ligand: none) came out at 27.2 nM.
As to “AUAUAAACAUAGGAUAUCGAAUUUAUCAUUUAACGAGAAGGAUGAACAUGAGGAUCACCCAUGUGGUAUCAUGG [Mat - Exclusion 6 - JL Mod - D5] (puzzle: Exclusion 6)”, the “apparent KD of MS2 coat protein” value is, setting by setting: under setting [1], 553 nM; under setting [2], 333 nM; under setting [3], 340 nM.
For the sequence “GGUCUUCAAGUCAGGAUAUCGUCUAAUAGAUCUAACGAGAAGGGACAUGAGGAUCACCCAUGUCGUCUCAUCAG [Ex4 #19] (Eterna round: R97, puzzle: Brourd's mod of Exclusion 4)”, the “apparent KD of MS2 coat protein” value was 34.5 nM (input ligand: FMN 200 uM) and 16.5 nM (input ligand: none).
As to “UAUAUAUAGUAAGGAUAUGUAAUUAGUUUAUAAACAGAAGGUACUGACAUGAGGAUCACCCAUGUUUUAGUGUGGGCAUGUAGA [JMF's solution 36] (Eterna round: R96, puzzle: Exclusion NG 1)”, the “apparent KD of MS2 coat protein” value under setting [4] is 61.3 nM.
“AGACAGUCAGGAUAUACAUGAGGAUCACCCAUGUUGAGAUGAGAAAGGGCAGGAAGAGGUAGAAGGGACAAGAG [JR_Exclu3_Sub036] (puzzle: Exclusion 3)”: the “apparent KD of MS2 coat protein” value came out at 25 nM under setting [1], 20.8 nM under setting [2] and 24.8 nM under setting [3].
With “GUCUUGUCAGGAUAUCUUACAUAACAAUCGUAGUUACAAUUGGAGAAGGGACAUGAGGAUCACCCAUGUUAGCA [tap-tap-tappy36] (Eterna round: R97, puzzle: Exclusion 4)”, the “apparent KD of MS2 coat protein” value runs as follows: (input ligand: FMN 200 uM) 26.5 nM; (input ligand: none) 26.9 nM.
The like results for “AUGGAGGUAGUCAGGAUAUCGGGCGCUCGGGCGUACGAGAAGGGACAUGAGGAUCACCCAUGUCGCUCAUUCCA [BmEX4 C.2] (Eterna round: R97, puzzle: Brourd's mod of Exclusion 4)” were, in that order, 24.6 nM and 23.4 nM.
Turning to “GCGCAGCUGGUAGGAUAUUACAGACAGGACUCACGUAAGGGAGCCUGACAUGAGGAUCACCCAUGUAAGAAGGGCCGUGGUAUC [Eternabot solution 11] (Eterna round: R96, puzzle: Exclusion NG 2)”, the “apparent KD of MS2 coat protein” value reads like this: (input ligand: FMN 200 uM) 34.5 nM; under setting [4], 19.8 nM; (input ligand: none) 22.5 nM.
The like results for “UCGCUCCGUGUAGGAUAUCGUUGUACCCUGCGGCGAGAAGGACAUGAGGAUCACCCAUGUAUGUUAUUAUCACGCGUGGCGCAC [Design 70] (Eterna round: R96, puzzle: Exclusion NG 1)” were, in that order, 15.4 nM, 15.5 nM and 21.6 nM.
The like results for “UCGUUUCGUGUAGGAUAUUGGCCUGCUCUGGGUCGAGAAGGACAUGAGGAUCACCCAUGUAUGUUAUUAUCACGCGUGGCGCAU [Design 82] (Eterna round: R96, puzzle: Exclusion NG 1)” were, in that order, 124 nM, 34 nM and 36.6 nM.
For the sequence “ACCUUAAAAGUGAGGAUAUCUAGGGCCAAAUGGCCGGAGAAGGCACAUGAGGAUCACCCAUGUAACGCCAUGGA [Beinat] (puzzle: Brourd's mod of Exclusion 4)”, the “apparent KD of MS2 coat protein” value under setting [2] was determined as 13.9 nM.
With “ACAUGUAAUGCAGGAUAUGGGACACAUGAGGAUCACCCAUGUGACCAGAGGUAAUGCUAAGAGUCUCAGAAGGGUAUGUACAUG [Ex NG2 #49] (Eterna round: R96, puzzle: Exclusion NG 2)”, the “apparent KD of MS2 coat protein” value runs as follows: (input ligand: FMN 200 uM) 22.5 nM; under setting [4], 14.5 nM; (input ligand: none) 19 nM.
In the case of “CUUUUGUGAGGAUAUUAGUAGUAAAAAAAUAAAAUUACUACUGAGAAGGCACAUGAGGAUCACCCAUGUUUCUC [salish99_ex4_r3_037] (puzzle: Exclusion 4)”, the “apparent KD of MS2 coat protein” value under setting [2] was determined as 29.2 nM.
As to “UUUAAUUUUUUUUUUUUACAAGCUUUUUGCUCGUCUUAUACAUGAGGAUCACCCAUGUGAGUGGAGGAUAAAUUAUC [JMF 34] (puzzle: Sensor v3, turn-off variant 2)”, the “apparent KD of MS2 coat protein” value runs as follows: under setting [1], 19.4 nM; under setting [2], 29.2 nM; under setting [3], 20.4 nM.
Turning to “CAUUGUUAUCGAGGAUAUCGUAUUGAGAUUCUACGAGAAGGCGGACUAAACAUGAGGAUCACCCAUGUGGGACGGAUGCUUGGG [Ex NG1 #31] (Eterna round: R96, puzzle: Exclusion NG 1)”, the “apparent KD of MS2 coat protein” value (input ligand: FMN 200 uM) was 30.7 nM, the “apparent KD of MS2 coat protein” value under setting [4] was 25.8 nM and the “apparent KD of MS2 coat protein” value (input ligand: none) came to 28.1 nM.
The like results for “CGGCAUGUCUGAGGAUAUCUGCACGUGUAGUGCAGAGAAGGCAGAACAUGAGGAUCACCCAUGUAGAUCAUUAACCGAUUAAUU [ENG1/7-A3] (Eterna round: R96, puzzle: Exclusion NG 1)” were, in that order, 201 nM, 162 nM and 184 nM.
“UACAUGAGGAUCACCCAUGUUUUGUCGUGUAUGGUAUUUAUCUAGGAUAUCAAUUUAGUUAAUUAUGAGAAGGAGAAUAUUAAU [JMF's solution 75] (Eterna round: R96, puzzle: Exclusion NG 3)”: the “apparent KD of MS2 coat protein” value under setting [4] was found to be 28.9 nM.
For “ACAUGAGGAUCACCCAUGUGCACGUAAUGGCUCAUGUAGAGUGAGGAUAUGCGUGGCGAACGCGCGCAGAAGGCACAAGACUGG [Deportation 18 - Jieux - Exclusion NG 3] (Eterna round: R96, puzzle: Exclusion NG 3)”, the “apparent KD of MS2 coat protein” value (input ligand: FMN 200 uM) was 129 nM, the “apparent KD of MS2 coat protein” value under setting [4] worked out at 88.8 nM and the “apparent KD of MS2 coat protein” value (input ligand: none) is 99.7 nM.
Turning to “UUUUGCUCAGGAUAUACAUGAGGAUCACCCAUGUAUAUUGAAGGUAAUACAUGGGAAUGUAGAAGGGAGCUCAU [Omei Ex3 Pseudoloop 21] (Eterna round: R97, puzzle: Exclusion 3)”, the “apparent KD of MS2 coat protein” value (input ligand: FMN 200 uM) turned out to be 47.9 nM and the “apparent KD of MS2 coat protein” value (input ligand: none) was 70.4 nM.
Regarding “AAGAAACAUGAGGAUCACCCAUGUGAGGAUAUGUAAAAGAAAAUAAAAUAAAUAAGAAACAGAAGGCACAAAGG [Mat - Mod of Hog D19] (puzzle: Exclusion 1)”, the “apparent KD of MS2 coat protein” value runs as follows: under setting [1], 53.2 nM; under setting [2], 39.2 nM; under setting [3], 44.8 nM.
Regarding “CUAAAUCAUGUAGGAUAUGCGUGGCGAAGCUAUGCAGAAGGACAUGAGGAUCACCCAUGUGCUUCCGUCUGAGAACAGACGGAA [Mat - Exclusion NG 1 - Mod of JL - D26] (Eterna round: R96, puzzle: Exclusion NG 1)”, the “apparent KD of MS2 coat protein” value by setting is: (input ligand: FMN 200 uM) 115 nM; under setting [4], 277 nM; (input ligand: none) 251 nM.
The like results for “UUAAUACAUGUAGGAUAUGCGUGGCGAAGCUAUGCAGAAGGACAUGAGGAUCACCCAUGUCUCUGCGUCCGCGUACGGAUGCAA [JL Eng1 1.21 mod 5] (Eterna round: R96, puzzle: Exclusion NG 1)” were, in that order, 13.9 nM, 11.6 nM and 15.8 nM.
The like results for “GCACGGAGUGUAGGAUAUCUGUGCGAUUAGCUCAGAGAAGGACACAUGAGGAUCACCCAUGUGUUCCACGGAAACGAACCGUGC [Eli exng1 - 052] (Eterna round: R96, puzzle: Exclusion NG 1)” were, in that order, 11.8 nM, 10.2 nM and 13.4 nM.
As for “UGACCUAAAGGAUAUACAUGAGGAUCACCCAUGUCUUCAGCUGCCGUAAGGGAUCUUAGUAGAAGGUUAGGUCG [Eternabot (L1) Solution 43] (Eterna round: R97, puzzle: Exclusion 3)”, the “apparent KD of MS2 coat protein” value (input ligand: FMN 200 uM) amounted to 1360 nM and the “apparent KD of MS2 coat protein” value (input ligand: none) was determined as 84 nM.
Consider “CCUCACCGAGGAUAUACAUGAGGAUCACCCAUGUGAUCCUAAGGCUGAUCAAGCCUAUGUAGAAGGCGCAAAUC [salish99_ex3_r4_005] (Eterna round: R97, puzzle: Exclusion 3)”, for which the “apparent KD of MS2 coat protein” value runs as follows: (input ligand: FMN 200 uM) 1010 nM; (input ligand: none) 765 nM.
For “GAGUGACAUGAGGAUCACCCAUGUGAGGAUAUCGGACGGACCAAAUUAACAACAACCGCGAGAAGGCACAUCGG [Exclusion 1 V20] (puzzle: Exclusion 1)”, the “apparent KD of MS2 coat protein” value under setting [2] worked out at 112 nM.
